Measured values: patent US20240400657A1 (MorphoSys, published 2024)
Positions count from the first letter of the chain named.

T1: human C5aR_NT-bio peptide (human, biotin tag (position not given))
T1 construct: Chemically synthesized linear peptide (Genscript); also called human C5aR N-terminal peptide; human C5aR peptide
T1 peptide: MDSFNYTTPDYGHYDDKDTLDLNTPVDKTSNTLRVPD

T2: C5aR expressed on purified human neutrophils (human, UniProt P21730 1-350)
T2 sequence (looked up): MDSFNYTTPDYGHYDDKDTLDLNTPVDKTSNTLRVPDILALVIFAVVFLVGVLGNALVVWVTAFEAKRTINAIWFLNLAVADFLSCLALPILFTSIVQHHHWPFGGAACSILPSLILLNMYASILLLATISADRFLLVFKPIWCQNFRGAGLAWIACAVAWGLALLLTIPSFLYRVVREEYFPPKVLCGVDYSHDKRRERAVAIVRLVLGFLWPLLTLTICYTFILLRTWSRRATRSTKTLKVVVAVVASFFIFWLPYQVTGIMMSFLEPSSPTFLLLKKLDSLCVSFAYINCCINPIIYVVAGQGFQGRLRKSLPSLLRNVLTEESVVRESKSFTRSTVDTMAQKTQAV

T3: full length cynomolgus C5aR stably expressed on CHO Flp-In cells (cynomolgus monkey (Macaca fascicularis))
T3 chain: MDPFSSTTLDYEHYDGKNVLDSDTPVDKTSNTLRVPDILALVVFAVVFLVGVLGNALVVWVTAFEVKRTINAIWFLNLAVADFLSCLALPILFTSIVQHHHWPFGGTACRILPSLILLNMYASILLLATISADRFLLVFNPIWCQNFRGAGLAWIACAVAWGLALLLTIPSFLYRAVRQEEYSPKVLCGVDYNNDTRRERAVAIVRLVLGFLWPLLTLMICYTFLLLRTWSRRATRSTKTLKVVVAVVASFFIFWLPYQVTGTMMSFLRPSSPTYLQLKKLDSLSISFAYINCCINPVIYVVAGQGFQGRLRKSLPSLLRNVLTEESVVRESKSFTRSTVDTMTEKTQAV

B1: MAB #2 (antibody, human IgG1, lambda)
heavy: EVQLVESGGGLVKPGGSLRLSCAASGFTFSSYAMHWVRQAPGKGLEWVGRIKSVAQGGTTDYAAHVKGRFTISRDDSKNTLYLQMNSLKTEDTAVYYCARVSHSTFDVWGQGTLVTVSSASTKGPSVFPLAPSSKSTSGGTAALGCLVKDYFPEPVTVSWNSGALTSGVHTFPAVLQSSGLYSLSSVVTVPSSSLGTQTYICNVNHKPSNTKVDKRVEPKSCDKTHTCPPCPAPEAEGAPSVFLFPPKPKDTLMISRTPEVTCVVVDVSHEDPEVKFNWYVDGVEVHNAKTKPREEQYNSTYRVVSVLTVLHQDWLNGKEYKCKVSNKALPSSIEKTISKAKGQPREPQVYTLPPSREEMTKNQVSLTCLVKGFYPSDIAVEWESNGQPENNYKTTPPVLDSDGSFFLYSKLTVDKSRWQQGNVFSCSVMHEALHNHYTQKSLSLSPGK
light: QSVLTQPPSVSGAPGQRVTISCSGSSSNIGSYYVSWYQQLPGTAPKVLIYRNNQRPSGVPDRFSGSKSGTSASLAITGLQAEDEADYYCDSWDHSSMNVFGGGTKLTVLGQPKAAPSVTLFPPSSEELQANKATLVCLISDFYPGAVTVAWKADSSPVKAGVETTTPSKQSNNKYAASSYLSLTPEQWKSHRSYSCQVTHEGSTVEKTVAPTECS
notes: lambda 1 light chain
B2: MAB #1 (antibody, human IgG1, lambda)
heavy: B1 heavy with V54K, H103F
light: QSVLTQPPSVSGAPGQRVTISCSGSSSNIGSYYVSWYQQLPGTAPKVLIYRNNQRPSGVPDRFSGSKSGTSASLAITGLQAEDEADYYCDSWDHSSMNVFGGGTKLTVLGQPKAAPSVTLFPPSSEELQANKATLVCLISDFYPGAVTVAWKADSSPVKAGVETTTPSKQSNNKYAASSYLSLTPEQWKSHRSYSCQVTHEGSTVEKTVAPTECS
notes: lambda 1 light chain, VH3-15 framework

Tests used:
[1] = target: T1, human C5aR_NT-bio peptide; experiment: BLI (Octet), apparent (bivalent)
[2] = target: T2, C5aR expressed on purified human …; experiment: cell-based or functional assay
[3] = target: T3, full length cynomolgus C5aR stably …; experiment: KinExA, MAB #1 as analyte, Flp-In CHO cells as titrant, apparent (bivalent) KD, n-curve analysis
Method: Apparent KD determination on C5aR-expressing cells was performed at RT with a KinExA® 3200 instrument (Sapidyne Instruments). PBS (Gibco), supplemented with BSA (1 mg/mL) and 0.02% (v/v) NaN₃ was used as assay buffer. […] After equilibration, the samples were centrifuged and the supernatants were used for analysis. […] The apparent KD was obtained using KinExA® software and by “n-curve analysis,” which fits all of the given curves to a single KD value simultaneously.

Row | Binder | fold weaker binding affinity compared to MAB #1 [1] [fold] | CD11b assay, granulocytes, 15 nM C5a, 20 minutes of IgG incubation: IC50 [2] [nM] | CD11b assay, granulocytes, 15 nM C5a, 300 minutes of IgG incubation: IC50 [2] [nM] | CD11b assay, granulocytes: x-fold improvement (20 min. vs 300 min.) [2] [fold] | CD11b assay, monocytes, 15 nM C5a, 20 minutes of IgG incubation: IC50 [2] [nM] | CD11b assay, monocytes, 15 nM C5a, 300 minutes of IgG incubation: IC50 [2] [nM] | CD11b assay, monocytes: x-fold improvement (20 min. vs 300 min.) [2] [fold] | Kd [3] [nM]
1 | B1 | ~10 |  |  |  |  |  |  | 
2 | B2 |  | 11 | 2.3 | 4.8 | 4 | 0.7 | 5.7 | 2.98
